Laboratory results taken from PMC13090976 (Cell Stress & Chaperones, 2026).
Numbering of substitutions follows the chain as printed. Names may count otherwise. Square brackets hold non-standard residues; d marks the D form. Ends that are not written are not given here. Peptide text beside a SMILES is read from it. * marks the point of attachment. FITC = O=C1OC2(c3ccc(O)cc3Oc3cc(O)ccc32)c2ccc(NC(=S)*)cc21; Biotin = O=C1N[C@H]2[C@H](CS[C@H]2CCCCC(=O)*)N1; pT = C[C@@H](OP(=O)(O)O)[C@H](N)C(=O)O; Ahx = NCCCCCC(=O)O

T1: full-length CHIP-G132N (Homo sapiens, UniProt Q9UNE7, G132N)
T1 construct: HIS; made in house
T1 sequence (Q9UNE7 1-303 G132N): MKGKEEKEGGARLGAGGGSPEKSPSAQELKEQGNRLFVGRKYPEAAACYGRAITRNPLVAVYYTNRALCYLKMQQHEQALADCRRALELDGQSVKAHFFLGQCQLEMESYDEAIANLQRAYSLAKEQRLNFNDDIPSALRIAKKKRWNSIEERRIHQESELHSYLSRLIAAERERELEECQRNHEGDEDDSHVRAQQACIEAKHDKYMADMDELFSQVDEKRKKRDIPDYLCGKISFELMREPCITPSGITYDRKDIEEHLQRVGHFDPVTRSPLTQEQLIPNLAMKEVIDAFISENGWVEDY

T2: full-length wild-type CHIP (Homo sapiens, UniProt Q9UNE7)
T2 construct: Recombinant CHIP-TPR (residues 21-154) and full-length CHIP proteins were expressed and purified as described; HIS; made in house
T2 sequence (Q9UNE7 1-303): T1 sequence (Q9UNE7 1-303 G132N) with N132G

T3: human CHIP-TPR (residues 21-154) (human, UniProt Q9UNE7 21-154)
T3 construct: also called wild-type CHIP-TPR
T3 sequence (looked up): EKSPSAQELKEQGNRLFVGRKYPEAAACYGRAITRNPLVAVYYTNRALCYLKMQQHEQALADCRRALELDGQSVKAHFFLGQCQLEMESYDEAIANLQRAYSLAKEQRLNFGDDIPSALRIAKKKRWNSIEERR

T4: G132N CHIP-TPR (human, UniProt Q9UNE7 21-154, G132N)
T4 construct: CHIP (STUB1), human, TPR domain with G132N; also called G132N variant
T4 sequence (looked up): T3 sequence (looked up) with G112N

T5: full-length CHIP (wild-type) (human, UniProt Q9UNE7 1-303)
T5 construct: CHIP (STUB1), full length, wild-type; Vector CHIP of the JCS lab; also called CHIP-WT; STUB1
T5 sequence (looked up): T1 sequence (Q9UNE7 1-303 G132N) with N132G

T6: CHIP TPR (fluorescence polarization construct) (human)
T6 chain: T3 sequence (looked up)

B1: CHIP TPR (fluorescence polarization construct) (domain or fragment)
chain: T3 sequence (looked up)
B2: CHIP TPR-CC (domain or fragment)
chain: MKGKEEKEGGARLGAGGGSPEKSPSAQELKEQGNRLFVGRKYPEAAACYGRAITRNPLVAVYYTNRALCYLKMQQHEQALADCRRALELDGQSVKAHFFLGQCQLEMESYDEAIANLQRAYSLAKEQRLNFGDDIPSALRIAKKKRWNSIEERRIHQESELHSYLSRLIAAERERELEECQRNHEGDEDDSHVRAQQACIEAKHDKYMADMDELFSQVDEKRKKR
B3: biotin-GSGSGP(pT)IEEVD (peptide)
peptide: Biotin-GSGSGP[pT]IEEVD
notes: C-terminal tail of human HSP70 (HSPA1A), Thr636 phosphorylated; also called biotin-pEEVD; biotinylated pEEVD peptide; source: synthetic peptide (Lifetein/Genscript)
B4: biotin-GSGSGPTIEEVD (peptide)
peptide: Biotin-GSGSGPTIEEVD
notes: C-terminal tail of human HSP70 (HSPA1A); also called biotin-EEVD; biotinylated EEVD peptide; source: synthetic peptide (Lifetein/Genscript)
B5: G132N: structure-guided G132N substitution variant of CHIP (protein)
chain: T1 sequence (Q9UNE7 1-303 G132N)
modifications: left off: HIS, end not stated, state not stated
notes: structure-guided G132N substitution variant of CHIP
B6: FITC-Ahx-GSGPTIEEVD (peptide)
peptide: {FITC-Ahx}-GSGPTIEEVD
notes: C-terminal tail of human HSP70 (HSPA1A); also called EEVD (fluorescence polarization tracer); unphosphorylated EEVD peptide; source: synthetic peptide (Lifetein/Genscript)

Legend:
[1] = target: T1, full-length CHIP-G132N; experiment: Fluorescence polarization, full-length CHIP-G132N; conditions: Fig. 4d binding curve, value in picture; FITC-Ahx-labelled peptide 20 nM, room temperature, 30 min; n = 3 independent experiments
Excerpt: (§1) Plasmids were propagated in DH5α Escherichia coli and purified using Qiagen Miniprep or Bio-Rad Midiprep kits. Mutations were introduced with Q5 (NEB) or QuikChange II XL (Agilent) kits and verified by Sanger sequencing. Peptides (Lifetein/Genscript) included unphosphorylated […] (EEVD), phosphorylated GP(pT)IEEVD (pEEVD), biotin-[…] (biotin-EEVD), biotin-GSGSGP(pT)IEEVD (biotin-pEEVD), and FITC-Ahx-[…] or FITC-Ahx-GSGP(pT)IEEVD for polarization assays. Recombinant CHIP-TPR (residues 21-154) and full-length CHIP proteins were expressed and purified as described.[8], [29]
(§2) The N-terminally labeled peptides were loaded into PCR reaction tubes at 2X (40 nM), resulting in a final concentration of 20 nM. Recombinant CHIP constructs were added to the tubes at the indicated concentrations. The reaction was left at room temperature for 30 min before loading into black, low-volume, round-bottom 384-well plates (Greiner Bio-One) with inter-run triplicates at 18 μl each and subsequently repeated independently 2 more times. […] The polarization readings were normalized to the dilution buffer. Gain adjustment was made to the tracer HSP70 peptides alone.

[2] = target: T2, full-length wild-type CHIP; experiment: Fluorescence polarization, full-length wild-type CHIP with HSP70 C-terminal peptide; conditions: Fig. 4c binding curve, value in picture; FITC-Ahx-labelled peptide 20 nM, room temperature, 30 min; n = 3 independent experiments
Excerpt: as §1, §2

[3] = test system: proteasome; experiment: Proteasome-dependent turnover of HSP70 T636 variants; assay type: cell-based; conditions: relative to WT and T636A, Figure S3
[4] = target: CHIP (UniProt Q9UNE7); experiment: fluorescence polarization titration; conditions: reference: unphosphorylated EEVD peptide; sites T636
[5] = target: B6; experiment: fluorescence polarisation; FITC-labelled peptide at 20 nM, recombinant CHIP constructs added at varied concentrations, 30 min at room temperature; one-site total binding fit, normalised to % of maximum binding; conditions: both partners purified
[6] = target: T3, human CHIP-TPR (residues 21-154); experiment: BLI; BLItz, biotinylated peptide loaded on streptavidin sensors, TPR construct at 1 to 25 uM in solution; 20 mM HEPES, 150 mM NaCl, 5 mM beta-mercaptoethanol, pH 7.2; Kd = koff/kon from individual fits; conditions: both partners purified
[7] = target: T4, G132N CHIP-TPR; experiment: as above; conditions: both partners purified
[8] = test system: HSP70; experiment: NanoBiT, transient cellular HSP70-CHIP interaction; assay type: cell-based; conditions: Figure S1
[9] = test system: HSP70; experiment: In vitro HSP70 ubiquitination; assay type: biochemical; conditions: Figure S2
[10] = test system: HSP70; experiment: Co-immunoprecipitation, steady-state HSP70-CHIP interaction; assay type: cell-based; conditions: phosphomimetic HSP70, Figure S1
[11] = target: T5, full-length CHIP (wild-type); experiment: fluorescence polarisation; FITC-labelled peptide at 20 nM, recombinant CHIP constructs added at varied concentrations, 30 min at room temperature; one-site total binding fit, normalised to % of maximum binding; conditions: both partners purified
[12] = target: T6, CHIP TPR (fluorescence polarization …); experiment: FP

Work on `CC[C@H](C)[C@H](NC(=O)[C@@H](NC(=O)[C@@H]1CCCN1C(=O)CN)[C@@H](C)O)C(=O)N[C@@H](CCC(=O)O)C(=O)N[C@@H](CCC(=O)O)C(=O)N[C@H](C(=O)N[C@@H](CC(=O)O)C(=O)O)C(C)C` [EEVD] (H-GPTIEEVD-OH) yielded a Kd [1] of 9.2 nM and a Kd [2] of 6.5 nM.

With `CC[C@H](C)[C@H](NC(=O)[C@@H](NC(=O)[C@@H]1CCCN1C(=O)CN)[C@@H](C)OP(=O)(O)O)C(=O)N[C@@H](CCC(=O)O)C(=O)N[C@@H](CCC(=O)O)C(=O)N[C@H](C(=O)N[C@@H](CC(=O)O)C(=O)O)C(C)C` [pEEVD, GP(pT)IEEVD] (H-GP[pT]IEEVD-OH) the Kd [1] was 96 nM and the Kd [2] was 46 nM.

With “T636D phosphomimetic: HSP70 T636D phosphomimetic variant” the turnover [3] was “accelerated proteasome-dependent turnover”.

“HSP70 C-terminal tail (from UniProt P0DMV8) pT636 pEEVD peptide” was tested, and the fold change [4] was “weaker”.

With B1 the Kd [5] was 28 nM.

Work on B2 yielded a Kd [5] of 42 nM.

B3 was tested, and the Kd [6] was 5230 nM and the Kd [7] was 1250 nM.

B4 gave a Kd [6] of 592 nM and a Kd [7] of 597 nM.

With B5 the “binding to the non-mimetic HSP70” value [8] was “overall reducing binding”, the HSP70 ubiquitination activity [9] was “retained HSP70 ubiquitination activity” and the “rescue of interaction in co-immunoprecipitation” value [10] was “no rescue”.

Work on B6 yielded a Kd [11] of 7 nM and a Kd [12] of 42000 nM.
